{
  "source": "paper PMC6056229",
  "about": "“Cryo-EM structure of the polycystin 2-l1 ion channel” (eLife, 2018)",
  "proteins": {"B1": {"name": "human polycystic kidney disease 2-like 1 (polycystin 2-l1) ion channel (natural protein, UniProt Q9P0L9 1-805, looked up)", "chain": "MNAVGSPEGQELQKLGSGAWDNPAYSGPPSPHGTLRVCTISSTGPLQPQPKKPEDEPQETAYRTQVSSCCLHICQGIRGLWGTTLTENTAENRELYIKTTLRELLVYIVFLVDICLLTYGMTSSSAYYYTKVMSELFLHTPSDTGVSFQAISSMADFWDFAQGPLLDSLYWTKWYNNQSLGHGSHSFIYYENMLLGVPRLRQLKVRNDSCVVHEDFREDILSCYDVYSPDKEEQLPFGPFNGTAWTYHSQDELGGFSHWGRLTSYSGGGYYLDLPGSRQGSAEALRALQEGLWLDRGTRVVFIDFSVYNANINLFCVLRLVVEFPATGGAIPSWQIRTVKLIRYVSNWDFFIVGCEVIFCVFIFYYVVEEILELHIHRLRYLSSIWNILDLVVILLSIVAVGFHIFRTLEVNRLMGKLLQQPNTYADFEFLAFWQTQYNNMNAVNLFFAWIKIFKYISFNKTMTQLSSTLARCAKDILGFAVMFFIVFFAYAQLGYLLFGTQVENFSTFIKCIFTQFRIILGDFDYNAIDNANRILGPAYFVTYVFFVFFVLLNMFLAIINDTYSEVKEELAGQKDELQLSDLLKQGYNKTLLRLRLRKERVSDVQKVLQGGEQEIQFEDFTNTLRELGHAEHEITELTATFTKFDRDGNRILDEKEQEKMRQDLEEERVALNTEIEKLGRSIVSSPQGKSGPEAARAGGWVSGEEFYMLTRRVLQLETVLEGVVSQIDAVGSKLKMLERKGWLAPSPGVKEQAIWKHPQPAPAVTPDPWGVQGGQESEVPYKREEEALEERRLSRGEIPTLQRS", "modifications": "glycan at N207; disulfide bond C210-C223", "notes": "polycystin 2-l1 (PKD2L1), human, full length; synthetic gene, not codon optimized; UniProt Q9P0L9; No cleavage of the MBP tag is described; fractions were found by western blot against MBP during the preparation for cryo-EM; The N terminus, the S4-S5 linker and the C terminus are not resolved in the map; also called PKD2L1; PC-2L1"}},
  "target": "the molecule itself",
  "assay": "cryo-EM structure; single particle cryo-EM of purified full-length polycystin 2-l1 in amphipol PMAL-C8, HKN buffer (HEPES 50, KCl 150, NaCl 50, CaCl2 5 mM; pH 7.5), C4 symmetry imposed, 3.3 Å",
  "data": [
    {"protein": "B1", "values": [
      {"measurement": "stoichiometry N", "value": 4}
    ]}
  ]
}
